In paper PMC7738868:

Target: fibronectin with extra-domain B (EDB-FN) (human (endogenous in U87MG and U251MG)) (UniProt P02751)
Test: cellular uptake of rhodamine B-labelled micelles, confocal microscopy; U87MG and U251MG cells incubated 1 h at 37 °C with 100 µg/mL micelles holding 1.0, 2.5 or 5.0 wt% APTEDB-DSPE, washed with PBS, fixed; fluorescence normalised to DAPI (ImageJ); nontargeting PEG2000-DSPE micelles as …; also after EDB-FN siRNA in U87MG (uptake decreased) and over 5 min to 4 h

UniProt P02751, sequence (P02751 32-2477): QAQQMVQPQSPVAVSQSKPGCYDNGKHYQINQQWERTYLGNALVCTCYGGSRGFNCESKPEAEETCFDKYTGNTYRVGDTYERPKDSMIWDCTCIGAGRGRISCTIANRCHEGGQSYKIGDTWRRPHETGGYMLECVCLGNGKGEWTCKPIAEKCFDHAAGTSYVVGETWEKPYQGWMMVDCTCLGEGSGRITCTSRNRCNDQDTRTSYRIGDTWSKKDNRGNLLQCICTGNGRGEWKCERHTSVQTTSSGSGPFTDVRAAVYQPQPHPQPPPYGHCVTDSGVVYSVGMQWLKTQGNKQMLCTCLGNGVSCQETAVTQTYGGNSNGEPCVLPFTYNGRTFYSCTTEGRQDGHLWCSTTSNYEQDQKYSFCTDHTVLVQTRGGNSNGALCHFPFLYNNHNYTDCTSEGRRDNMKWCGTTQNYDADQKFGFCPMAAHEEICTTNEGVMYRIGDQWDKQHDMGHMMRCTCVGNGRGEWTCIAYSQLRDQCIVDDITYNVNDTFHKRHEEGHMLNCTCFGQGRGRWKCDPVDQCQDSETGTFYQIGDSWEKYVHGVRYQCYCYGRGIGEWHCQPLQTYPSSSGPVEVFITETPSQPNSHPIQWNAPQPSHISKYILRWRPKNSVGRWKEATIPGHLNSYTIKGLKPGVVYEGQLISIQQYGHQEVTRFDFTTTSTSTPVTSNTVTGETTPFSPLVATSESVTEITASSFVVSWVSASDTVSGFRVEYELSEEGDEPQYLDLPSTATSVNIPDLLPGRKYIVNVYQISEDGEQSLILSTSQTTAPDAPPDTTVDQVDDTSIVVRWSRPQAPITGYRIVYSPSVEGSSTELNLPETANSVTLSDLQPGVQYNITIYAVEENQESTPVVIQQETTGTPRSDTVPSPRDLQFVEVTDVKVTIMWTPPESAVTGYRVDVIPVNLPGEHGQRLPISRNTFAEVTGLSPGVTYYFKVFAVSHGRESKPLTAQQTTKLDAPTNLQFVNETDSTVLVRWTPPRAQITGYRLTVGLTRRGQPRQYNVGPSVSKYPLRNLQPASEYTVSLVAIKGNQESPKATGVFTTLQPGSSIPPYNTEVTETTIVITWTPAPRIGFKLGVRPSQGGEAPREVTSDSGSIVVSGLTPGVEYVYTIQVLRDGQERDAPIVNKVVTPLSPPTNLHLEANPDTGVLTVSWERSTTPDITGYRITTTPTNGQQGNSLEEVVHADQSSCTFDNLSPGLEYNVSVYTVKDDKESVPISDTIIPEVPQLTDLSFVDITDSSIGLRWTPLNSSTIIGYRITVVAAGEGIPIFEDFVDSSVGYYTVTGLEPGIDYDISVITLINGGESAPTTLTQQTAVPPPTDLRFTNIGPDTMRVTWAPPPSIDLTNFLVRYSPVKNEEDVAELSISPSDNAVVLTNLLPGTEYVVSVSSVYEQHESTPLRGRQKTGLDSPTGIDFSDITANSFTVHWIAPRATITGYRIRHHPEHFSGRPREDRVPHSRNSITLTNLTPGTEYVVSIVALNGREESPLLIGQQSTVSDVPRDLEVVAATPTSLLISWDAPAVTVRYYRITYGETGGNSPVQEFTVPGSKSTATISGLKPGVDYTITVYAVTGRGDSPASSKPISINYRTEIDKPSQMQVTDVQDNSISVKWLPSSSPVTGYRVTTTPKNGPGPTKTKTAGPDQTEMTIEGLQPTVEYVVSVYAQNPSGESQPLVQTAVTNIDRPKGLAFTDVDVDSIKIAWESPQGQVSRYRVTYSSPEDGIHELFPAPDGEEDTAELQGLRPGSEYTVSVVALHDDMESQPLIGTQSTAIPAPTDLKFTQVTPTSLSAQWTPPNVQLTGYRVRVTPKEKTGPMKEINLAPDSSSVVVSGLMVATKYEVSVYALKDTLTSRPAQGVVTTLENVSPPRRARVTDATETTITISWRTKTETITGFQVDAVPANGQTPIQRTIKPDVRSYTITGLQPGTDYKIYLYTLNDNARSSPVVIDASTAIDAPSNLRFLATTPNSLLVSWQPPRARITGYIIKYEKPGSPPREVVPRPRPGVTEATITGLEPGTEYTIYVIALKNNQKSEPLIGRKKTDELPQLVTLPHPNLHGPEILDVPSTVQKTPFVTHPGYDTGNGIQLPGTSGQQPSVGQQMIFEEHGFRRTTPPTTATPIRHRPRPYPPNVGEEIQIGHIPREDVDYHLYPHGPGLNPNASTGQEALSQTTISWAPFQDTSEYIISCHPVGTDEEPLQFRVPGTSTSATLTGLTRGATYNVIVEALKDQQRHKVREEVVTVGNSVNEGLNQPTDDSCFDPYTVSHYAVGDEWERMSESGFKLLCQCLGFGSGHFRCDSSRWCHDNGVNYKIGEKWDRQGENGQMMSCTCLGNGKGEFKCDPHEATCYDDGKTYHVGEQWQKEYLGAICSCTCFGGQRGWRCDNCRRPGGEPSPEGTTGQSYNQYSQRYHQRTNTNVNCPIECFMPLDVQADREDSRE

## APTEDB-conjugated PEG2000-DSPE (EDB-FN-specific aptamer-like peptide on the surface of a micellar nano-DDS) (designed binder)
  cellular uptake, fluorescence intensity normalised to DAPI (U87MG cells, 1.0 wt% APTEDB-DSPE): 166 A.U.
  cellular uptake, fluorescence intensity normalised to DAPI (U87MG cells, 2.5 wt% APTEDB-DSPE): 93.2 A.U.
  cellular uptake, fluorescence intensity normalised to DAPI (U87MG cells, 5.0 wt% APTEDB-DSPE): 56.7 A.U.
  cellular uptake, fluorescence intensity normalised to DAPI (U251MG cells, 1.0 wt% APTEDB-DSPE): 76.4 A.U.
  cellular uptake, fluorescence intensity normalised to DAPI (U251MG cells, 2.5 wt% APTEDB-DSPE): 129 A.U.
  cellular uptake, fluorescence intensity normalised to DAPI (U251MG cells, 5.0 wt% APTEDB-DSPE): 53.4 A.U.
